How the values were obtained:
[1] = molecular target: T1, human ALK2(WT)-EGFP on cells (human, UniProt Q04771 21-509); experiment: flow cytometry on transfected HEK293A cells, Alexa 647 anti-rat IgG (APC-A) against EGFP (FITC-A)
T1 construct: also called hALK2(WT)-EGFP; human ALK2-EGFP; not shown: EGFP fused to ALK2
T1 sequence: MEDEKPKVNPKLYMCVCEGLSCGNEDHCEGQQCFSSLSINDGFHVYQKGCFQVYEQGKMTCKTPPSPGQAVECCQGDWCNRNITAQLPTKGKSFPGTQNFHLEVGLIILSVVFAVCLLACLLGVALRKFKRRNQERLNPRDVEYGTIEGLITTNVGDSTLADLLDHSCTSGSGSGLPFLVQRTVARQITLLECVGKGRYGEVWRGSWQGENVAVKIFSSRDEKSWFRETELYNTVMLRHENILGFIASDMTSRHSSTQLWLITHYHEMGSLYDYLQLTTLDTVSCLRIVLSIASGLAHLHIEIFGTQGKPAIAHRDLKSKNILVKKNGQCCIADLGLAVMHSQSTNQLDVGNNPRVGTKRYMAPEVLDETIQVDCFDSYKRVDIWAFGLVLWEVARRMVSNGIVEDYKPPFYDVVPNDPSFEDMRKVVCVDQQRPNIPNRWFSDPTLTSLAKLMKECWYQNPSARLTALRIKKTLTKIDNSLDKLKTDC
Procedure: (§1) HEK293A cells were seeded into a 100-mm dish at 3×10⁴ cells/cm², and cultured overnight in 15% FBS-containing DMEM medium under the conditions of 5% CO₂ at 37° C. On the following day, the HEK293A cells were transfected with each of pcDEF3/mouse ALK2(WT)-EGFP, pcDEF3/human ALK2(WT)-EGFP, pcDEF3/human ALK2 (R206H)-EGFP, and pcDEF3, using Lipofectamine 2000 (Invitrogen), and further cultured overnight. On the following day, 100 μL each of the cell suspensions adjusted to 1×10⁶ cells/mL was dispensed into a 1.5-mL microfuge and centrifuged at 500 g for 5 minutes, and then the supernatant was removed. To the cells, 100 μL of purified IgG diluted to 1 μg/mL was added, and the cells were left for 30 minutes at 4° C. After the cells were washed with PBS three times, 100 μL of Alexa flour 647 Goat anti-Rat IgG (H+L) (Life Technologies) diluted to 1:200 was added, and the cells were further left for 30 minutes at 4° C. After the cells were washed with PBS three times, fluorescence was detected by a flow cytometer (FACS Aria II: BD Biosciences). The data was analyzed using BD Diva Software (BD Biosciences), and the intensity of EGFP expressed by the cells and the fluorescence intensity of stained Alexa flour 647 were plotted.

[2] = molecular target: T2, human ALK2(R206H)-EGFP on HEK293A cells (human, UniProt Q04771 21-509); experiment: as above
T2 construct: also called hALK2(R206H)-EGFP; FOP human ALK2; not shown: EGFP fused to ALK2
T2 sequence: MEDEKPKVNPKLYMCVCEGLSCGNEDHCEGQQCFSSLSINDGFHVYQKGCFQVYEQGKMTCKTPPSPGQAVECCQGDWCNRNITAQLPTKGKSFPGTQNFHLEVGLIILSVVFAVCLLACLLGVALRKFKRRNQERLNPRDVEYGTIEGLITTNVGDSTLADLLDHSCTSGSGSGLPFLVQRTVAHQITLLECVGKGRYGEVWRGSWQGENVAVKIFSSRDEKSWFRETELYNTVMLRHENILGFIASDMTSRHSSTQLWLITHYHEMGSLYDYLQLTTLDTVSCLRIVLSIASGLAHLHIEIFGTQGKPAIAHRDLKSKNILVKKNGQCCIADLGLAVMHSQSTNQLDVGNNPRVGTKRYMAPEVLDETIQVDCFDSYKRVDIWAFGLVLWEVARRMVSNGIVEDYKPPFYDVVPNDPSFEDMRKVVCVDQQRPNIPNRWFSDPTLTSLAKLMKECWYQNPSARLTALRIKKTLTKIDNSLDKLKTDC
Procedure: as §1

[3] = molecular target: T3, Mouse ALK2-His&Fc (Sino Biological Inc., Cat. #50297-M03H) (mouse, UniProt P37172 21-123); experiment: ELISA, antigen coated at 1 µg/ml, hybridoma culture supernatant, ALP anti-rat IgG, O.D.492
T3 construct: Bought product; also called mALK2-Fc; not shown: His tag and Fc of the bought product
T3 sequence: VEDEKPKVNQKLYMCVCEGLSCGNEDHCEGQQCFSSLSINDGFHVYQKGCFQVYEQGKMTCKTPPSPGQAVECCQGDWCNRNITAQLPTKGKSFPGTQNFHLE
Procedure: One week after the cell fusion, using each culture supernatant, clones recognizing mouse ALK2-His&Fc used as the antigen were selected by the enzyme-linked immunosorbent assay (ELISA), and clones recognizing only human Fc (Sino Biological Inc.) were excluded. ELISA was performed as follows.
First, the antigen diluted to 1 μg/ml with PBS was immobilized onto a 96-well ELISA plate (NUNC, Cat. #442404) for 2 hours at room temperature or overnight at 4° C. The immobilized solution was removed, and the plate was blocked with a 0.5% skim milk solution dissolved in PBS for 30 minutes at room temperature. Next, the above-described culture supernatant of hybridomas was added, and the plate was left for 1 hour at room temperature. After the plate was washed, an ALP-labeled anti-rat IgG antibody (SBA, Inc.) diluted with 0.5% skim milk to 1:2500 was added, and the plate was further left for 1 hour at room temperature. After the plate was washed, a phenyl phosphate substrate was reacted for 20 minutes at room temperature, and then absorbance at a wavelength of 492 nm was measured.

Measured: binding result

B1: rat anti-ALK2 monoclonal antibody A2-11E (antibody, V domains shown)
VH: EVQLVETGGGLVQPGRSLKLSCVASGFTFSNYYMYWIRQAPGKGLEWISSINTDGGSTYYPDSVKGRFAISRDNAENTVYLQMNSLRSEDTATYYCAKSTPNIPLAYWGQGTLVTVSS
VL: DIQMTQSPSLLSASVGDRVTLSCKASQNIYKYLNWFQQKLGEAPKLLIYYSNSLQTGIPSRFSGSGSGTDFTLTISSLQPEDVAIYFCFQYSSGPTFGPGTKLELKR
notes: Rat monoclonal IgG from a hybridoma; also called 11E2
binds: all assays above

B2: rat anti-ALK2 monoclonal antibody A2-15A (antibody, V domains shown)
VH: EVQLVESGGGLVQPGRSLKLSCAASGFTFSHYYMAWVRQAPTKGLEWVASITNSGGSINYRDSVKGRFTISRDNAKSTLYLQMDSLRSEDTATYYCTREGGENYGGYPPFAYWGQGTLVTVSS
VL: DIVLTQSPALAVSLGQRATISCRANQGVSLSRYNLMHWYQQKPGQKPKLLIYRSSNLASGIPARFSGSGSGTDFTLTINPVQADDIATYYCQQSRESPFTFGAGTKLELKR
notes: Rat monoclonal IgG from a hybridoma; also called 15A6
binds: all assays above

B3: rat anti-ALK2 monoclonal antibody A2-25C (antibody, V domains shown)
VH: EVQLVESGGGLVQPGGSLKLSCAASGFTFSYYAMSWVCQAPTKGLEWVASISRGGDNTYYRDTVKGRFTTSRDNAKNTLYLQMDSLRSEDTATYYCARLNYNNYFDYWGQGVMVTVSS
VL: DIQMTQSPASLSASLEEIVTITCQASQDIGNWLSWYQQKPGKSPQLLIYGATSLADGVPSRFSGSRSGTQYSLKISRLRVEDIGIYYCLQAYSAPFTFGSGTKLEIKR
notes: Rat monoclonal IgG from a hybridoma; also called 25C11
binds: all assays above

B4: rat anti-ALK2 monoclonal antibody A2-27D (antibody, V domains shown)
VH: EVQLVESGGGLVQPGRSLKLSCLASGSTFSNYGMKWIRQAPGKGLEWVASISRSSTYIYYADTVKGRFTISRDNARNTLYLQMTSLRSEDTALYYCAAAISTPFYWYFDFWGPGTVVTVSS
VL: EIVLTQSPTTMAASPGEKVTLNCLASSSVSYMTWYQQKSGASPKLWIYGTSNLASGVPNRFSGSGSGTSYSLAISSMEAEDVATYYCLHLTSYPPYTFGAGTKLELKR
notes: Rat monoclonal IgG from a hybridoma; also called 27D11
binds: all assays above
